According to US20190134153A1, “IMMUNOMODULATORY EFFECT OF INHALED KINASE INHIBITOR PEPTIDES IN LUNG” (MOERAE MATRIX, INC., priority 2017, published 2019):

Tests used:
Assay in all cases: Kinase Profiling Assay
Format in all cases: biochemical
Conditions in all cases: 100 μM
ALK4(h) = target: T1, ALK4(h) (Homo sapiens, UniProt P36896)
T1 sequence (P36896 24-505): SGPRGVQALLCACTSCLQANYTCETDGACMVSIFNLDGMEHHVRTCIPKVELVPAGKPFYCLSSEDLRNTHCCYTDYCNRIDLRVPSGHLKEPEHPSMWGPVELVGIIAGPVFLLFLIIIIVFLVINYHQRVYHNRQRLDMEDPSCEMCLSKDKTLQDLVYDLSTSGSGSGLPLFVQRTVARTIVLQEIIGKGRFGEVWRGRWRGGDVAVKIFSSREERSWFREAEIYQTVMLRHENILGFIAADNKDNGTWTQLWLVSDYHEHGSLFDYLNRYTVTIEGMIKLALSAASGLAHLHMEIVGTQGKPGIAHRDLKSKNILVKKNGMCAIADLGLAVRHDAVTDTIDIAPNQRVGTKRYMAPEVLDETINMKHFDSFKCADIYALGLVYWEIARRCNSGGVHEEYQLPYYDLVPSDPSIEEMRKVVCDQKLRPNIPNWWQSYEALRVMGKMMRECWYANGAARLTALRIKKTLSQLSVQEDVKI

BrSK1(h) = target: T2, BrSK1(h) (Homo sapiens, UniProt Q8TDC3)
T2 sequence (Q8TDC3 1-778): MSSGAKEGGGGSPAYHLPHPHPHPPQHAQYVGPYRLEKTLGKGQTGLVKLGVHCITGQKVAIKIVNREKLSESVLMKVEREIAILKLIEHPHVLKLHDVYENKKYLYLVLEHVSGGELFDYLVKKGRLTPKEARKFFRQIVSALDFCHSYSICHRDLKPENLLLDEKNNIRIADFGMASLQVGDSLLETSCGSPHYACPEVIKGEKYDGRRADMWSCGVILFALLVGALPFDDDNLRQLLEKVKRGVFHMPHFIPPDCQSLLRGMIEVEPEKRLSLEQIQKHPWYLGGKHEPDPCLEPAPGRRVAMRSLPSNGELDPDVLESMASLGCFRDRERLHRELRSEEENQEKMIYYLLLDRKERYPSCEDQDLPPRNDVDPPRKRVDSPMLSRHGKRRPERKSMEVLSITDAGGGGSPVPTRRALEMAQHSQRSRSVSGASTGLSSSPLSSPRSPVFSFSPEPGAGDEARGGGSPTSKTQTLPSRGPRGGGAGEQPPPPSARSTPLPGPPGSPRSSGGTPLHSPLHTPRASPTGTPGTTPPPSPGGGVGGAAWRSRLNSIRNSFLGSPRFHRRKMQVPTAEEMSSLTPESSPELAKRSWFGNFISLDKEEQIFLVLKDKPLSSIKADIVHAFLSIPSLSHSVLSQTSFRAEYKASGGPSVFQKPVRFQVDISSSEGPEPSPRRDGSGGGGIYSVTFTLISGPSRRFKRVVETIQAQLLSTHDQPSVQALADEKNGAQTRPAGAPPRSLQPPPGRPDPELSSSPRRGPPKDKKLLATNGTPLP

EphA4(h) = EphA4(h) (Homo sapiens, UniProt P54764)
ErbB4(h) = ErbB4(h) (Homo sapiens, UniProt Q15303)
GCK(h) = target: T3, GCK(h) (Homo sapiens, UniProt Q12851)
T3 sequence (Q12851 1-820): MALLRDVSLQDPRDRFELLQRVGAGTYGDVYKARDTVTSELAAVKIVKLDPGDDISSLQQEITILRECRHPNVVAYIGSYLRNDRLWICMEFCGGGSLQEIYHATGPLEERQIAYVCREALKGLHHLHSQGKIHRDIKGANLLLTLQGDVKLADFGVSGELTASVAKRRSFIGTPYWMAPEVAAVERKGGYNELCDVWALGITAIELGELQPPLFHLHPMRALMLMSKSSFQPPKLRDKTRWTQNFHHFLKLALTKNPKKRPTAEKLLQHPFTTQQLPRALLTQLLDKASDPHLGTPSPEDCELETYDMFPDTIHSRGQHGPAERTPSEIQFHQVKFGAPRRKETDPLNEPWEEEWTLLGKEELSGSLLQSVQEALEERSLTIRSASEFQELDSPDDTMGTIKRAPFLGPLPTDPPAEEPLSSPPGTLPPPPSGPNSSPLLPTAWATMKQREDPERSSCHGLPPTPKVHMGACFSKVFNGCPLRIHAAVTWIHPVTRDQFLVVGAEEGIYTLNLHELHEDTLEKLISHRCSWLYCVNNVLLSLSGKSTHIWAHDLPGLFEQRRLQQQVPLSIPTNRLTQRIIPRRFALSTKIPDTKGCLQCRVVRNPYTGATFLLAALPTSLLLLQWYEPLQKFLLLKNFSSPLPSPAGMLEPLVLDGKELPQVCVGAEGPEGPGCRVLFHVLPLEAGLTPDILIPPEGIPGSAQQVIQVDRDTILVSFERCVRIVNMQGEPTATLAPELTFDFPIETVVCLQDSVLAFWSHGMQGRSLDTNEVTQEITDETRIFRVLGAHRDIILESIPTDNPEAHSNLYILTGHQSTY

MAPKAP-K2(h) = MAPKAP-K2(h) (Homo sapiens, UniProt P49137)
Met(h) = Met(h) (Homo sapiens, UniProt P08581)
Met(Y1248D)(h) = Met(Y1248D)(h) (Homo sapiens, UniProt P08581, Y1230D)
Ret(h) = Ret(h) (Homo sapiens, UniProt P07949)
SRPK1(h) = SRPK1(h) (Homo sapiens, UniProt Q96SB4)
Tie2(Y897S)(h) = Tie2(Y897S)(h) (Homo sapiens, UniProt Q02763, Y897S)
HIPK1(h) = HIPK1(h) (Homo sapiens, UniProt Q86Z02)
Sequence of HIPK1(h) (Q86Z02 whole entry): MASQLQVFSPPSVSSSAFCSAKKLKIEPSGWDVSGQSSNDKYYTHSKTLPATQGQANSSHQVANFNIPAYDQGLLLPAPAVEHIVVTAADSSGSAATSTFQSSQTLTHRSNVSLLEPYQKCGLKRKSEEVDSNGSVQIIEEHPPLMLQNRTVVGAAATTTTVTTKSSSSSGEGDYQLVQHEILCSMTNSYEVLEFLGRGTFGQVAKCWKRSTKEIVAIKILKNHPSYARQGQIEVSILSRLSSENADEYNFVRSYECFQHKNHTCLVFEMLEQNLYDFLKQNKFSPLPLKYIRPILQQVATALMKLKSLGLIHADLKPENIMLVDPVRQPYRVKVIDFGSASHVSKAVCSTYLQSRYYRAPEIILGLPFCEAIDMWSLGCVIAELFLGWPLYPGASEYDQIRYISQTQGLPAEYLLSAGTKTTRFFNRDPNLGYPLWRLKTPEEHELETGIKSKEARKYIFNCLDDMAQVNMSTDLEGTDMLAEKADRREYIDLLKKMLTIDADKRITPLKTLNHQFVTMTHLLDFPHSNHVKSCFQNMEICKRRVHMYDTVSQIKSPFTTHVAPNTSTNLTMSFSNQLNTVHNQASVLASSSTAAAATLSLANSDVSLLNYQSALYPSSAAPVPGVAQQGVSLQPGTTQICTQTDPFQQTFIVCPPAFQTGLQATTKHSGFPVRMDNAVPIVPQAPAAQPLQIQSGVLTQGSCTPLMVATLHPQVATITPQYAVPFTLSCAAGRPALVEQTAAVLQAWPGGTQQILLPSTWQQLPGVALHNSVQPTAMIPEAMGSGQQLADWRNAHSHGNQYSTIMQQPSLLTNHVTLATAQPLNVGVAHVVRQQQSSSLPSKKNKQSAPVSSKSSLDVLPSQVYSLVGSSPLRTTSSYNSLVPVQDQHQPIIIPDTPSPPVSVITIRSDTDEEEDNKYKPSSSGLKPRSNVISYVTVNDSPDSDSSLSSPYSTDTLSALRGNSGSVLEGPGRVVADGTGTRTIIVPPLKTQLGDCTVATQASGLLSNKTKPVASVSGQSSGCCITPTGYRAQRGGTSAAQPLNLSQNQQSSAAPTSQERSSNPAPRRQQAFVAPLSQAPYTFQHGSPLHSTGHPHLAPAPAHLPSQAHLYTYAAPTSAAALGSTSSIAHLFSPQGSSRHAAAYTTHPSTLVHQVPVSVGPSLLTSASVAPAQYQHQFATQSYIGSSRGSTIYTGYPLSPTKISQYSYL

Sequence of EphA4(h) (P54764 20-986): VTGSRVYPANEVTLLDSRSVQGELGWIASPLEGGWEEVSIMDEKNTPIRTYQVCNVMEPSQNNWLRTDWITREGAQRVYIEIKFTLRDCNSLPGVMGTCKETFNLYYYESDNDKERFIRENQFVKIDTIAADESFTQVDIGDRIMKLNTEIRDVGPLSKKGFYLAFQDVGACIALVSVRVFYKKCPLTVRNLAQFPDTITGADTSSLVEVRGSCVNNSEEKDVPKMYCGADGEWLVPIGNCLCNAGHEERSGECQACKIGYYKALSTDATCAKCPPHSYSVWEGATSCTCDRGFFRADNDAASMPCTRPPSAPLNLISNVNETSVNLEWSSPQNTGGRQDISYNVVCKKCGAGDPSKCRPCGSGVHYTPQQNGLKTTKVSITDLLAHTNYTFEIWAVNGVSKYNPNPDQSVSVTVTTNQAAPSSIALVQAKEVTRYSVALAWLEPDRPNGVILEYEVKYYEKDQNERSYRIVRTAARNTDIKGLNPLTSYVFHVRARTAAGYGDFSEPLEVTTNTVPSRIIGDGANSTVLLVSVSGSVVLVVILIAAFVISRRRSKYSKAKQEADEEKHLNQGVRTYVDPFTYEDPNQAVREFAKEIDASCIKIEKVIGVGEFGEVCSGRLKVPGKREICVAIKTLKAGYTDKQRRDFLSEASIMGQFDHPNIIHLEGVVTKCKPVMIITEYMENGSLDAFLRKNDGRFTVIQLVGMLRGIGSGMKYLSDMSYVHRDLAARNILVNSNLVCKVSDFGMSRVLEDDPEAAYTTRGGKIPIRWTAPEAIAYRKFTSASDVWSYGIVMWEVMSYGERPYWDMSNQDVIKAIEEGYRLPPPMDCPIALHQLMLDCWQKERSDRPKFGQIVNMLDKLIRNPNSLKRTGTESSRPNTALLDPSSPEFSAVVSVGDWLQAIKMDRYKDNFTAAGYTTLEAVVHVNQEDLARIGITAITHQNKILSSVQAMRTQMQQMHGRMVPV
Sequence of ErbB4(h) (Q15303 26-1308): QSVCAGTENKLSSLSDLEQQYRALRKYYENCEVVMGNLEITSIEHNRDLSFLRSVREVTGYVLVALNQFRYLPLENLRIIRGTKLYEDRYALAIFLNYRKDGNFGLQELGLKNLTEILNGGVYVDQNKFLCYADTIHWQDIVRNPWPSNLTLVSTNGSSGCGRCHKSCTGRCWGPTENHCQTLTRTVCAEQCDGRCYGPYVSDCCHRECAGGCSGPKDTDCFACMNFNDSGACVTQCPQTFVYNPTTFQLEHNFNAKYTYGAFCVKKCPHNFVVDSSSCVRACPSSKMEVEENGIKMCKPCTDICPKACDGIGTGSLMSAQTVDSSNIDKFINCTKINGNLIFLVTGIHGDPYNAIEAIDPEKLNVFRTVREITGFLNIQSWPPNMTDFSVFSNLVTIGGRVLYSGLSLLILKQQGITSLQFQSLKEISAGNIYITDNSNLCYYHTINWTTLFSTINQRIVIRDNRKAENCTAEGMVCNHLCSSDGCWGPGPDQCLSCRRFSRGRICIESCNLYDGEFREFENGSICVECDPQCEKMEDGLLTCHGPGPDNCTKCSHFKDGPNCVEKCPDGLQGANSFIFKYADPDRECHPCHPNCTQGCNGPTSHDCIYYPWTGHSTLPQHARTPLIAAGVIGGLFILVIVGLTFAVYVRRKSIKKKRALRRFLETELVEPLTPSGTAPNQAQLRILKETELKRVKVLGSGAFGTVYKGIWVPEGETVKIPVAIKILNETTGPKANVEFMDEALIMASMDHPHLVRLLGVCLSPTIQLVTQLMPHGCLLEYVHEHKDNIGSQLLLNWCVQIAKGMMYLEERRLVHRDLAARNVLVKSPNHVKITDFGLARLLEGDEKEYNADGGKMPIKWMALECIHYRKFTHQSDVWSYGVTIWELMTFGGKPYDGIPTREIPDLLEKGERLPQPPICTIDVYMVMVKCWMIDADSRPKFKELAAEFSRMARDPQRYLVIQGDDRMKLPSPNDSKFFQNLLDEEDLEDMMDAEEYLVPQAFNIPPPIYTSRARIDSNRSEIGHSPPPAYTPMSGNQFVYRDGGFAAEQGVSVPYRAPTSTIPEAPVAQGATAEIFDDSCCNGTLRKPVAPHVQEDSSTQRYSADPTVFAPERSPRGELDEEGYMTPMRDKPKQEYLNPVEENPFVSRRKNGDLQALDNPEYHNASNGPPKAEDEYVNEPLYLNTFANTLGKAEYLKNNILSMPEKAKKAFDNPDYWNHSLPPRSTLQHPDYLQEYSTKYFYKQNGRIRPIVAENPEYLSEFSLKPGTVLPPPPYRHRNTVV
Sequence of Tie2(Y897S)(h) (Q02763 23-1124 Y897S): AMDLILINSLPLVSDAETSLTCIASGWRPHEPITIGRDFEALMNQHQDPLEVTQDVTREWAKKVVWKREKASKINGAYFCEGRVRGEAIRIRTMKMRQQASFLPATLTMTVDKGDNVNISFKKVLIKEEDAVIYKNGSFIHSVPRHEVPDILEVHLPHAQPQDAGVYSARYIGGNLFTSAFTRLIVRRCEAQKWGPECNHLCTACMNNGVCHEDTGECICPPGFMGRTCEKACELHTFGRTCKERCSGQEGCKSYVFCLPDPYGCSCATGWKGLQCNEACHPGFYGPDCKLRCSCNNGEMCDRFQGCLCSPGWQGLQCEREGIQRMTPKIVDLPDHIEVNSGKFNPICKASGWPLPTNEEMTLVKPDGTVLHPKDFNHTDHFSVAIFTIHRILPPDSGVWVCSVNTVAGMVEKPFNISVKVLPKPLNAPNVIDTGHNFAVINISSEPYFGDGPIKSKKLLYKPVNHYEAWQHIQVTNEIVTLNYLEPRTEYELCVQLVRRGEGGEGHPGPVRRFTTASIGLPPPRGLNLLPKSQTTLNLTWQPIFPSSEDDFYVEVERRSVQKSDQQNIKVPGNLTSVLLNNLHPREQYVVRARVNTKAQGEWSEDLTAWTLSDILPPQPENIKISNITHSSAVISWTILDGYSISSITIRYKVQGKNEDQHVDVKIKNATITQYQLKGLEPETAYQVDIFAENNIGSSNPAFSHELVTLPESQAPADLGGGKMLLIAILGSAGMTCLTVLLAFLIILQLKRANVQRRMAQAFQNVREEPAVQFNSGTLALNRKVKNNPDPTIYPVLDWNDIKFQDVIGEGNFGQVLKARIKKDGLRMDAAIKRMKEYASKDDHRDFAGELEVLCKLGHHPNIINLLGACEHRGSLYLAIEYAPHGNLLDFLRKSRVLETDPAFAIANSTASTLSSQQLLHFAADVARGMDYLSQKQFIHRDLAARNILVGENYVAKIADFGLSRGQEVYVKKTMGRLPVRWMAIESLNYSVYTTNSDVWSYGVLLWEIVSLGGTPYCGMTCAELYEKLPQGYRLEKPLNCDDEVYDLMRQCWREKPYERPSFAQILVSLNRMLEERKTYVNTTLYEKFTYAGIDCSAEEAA
Sequence of MAPKAP-K2(h) (P49137 whole entry): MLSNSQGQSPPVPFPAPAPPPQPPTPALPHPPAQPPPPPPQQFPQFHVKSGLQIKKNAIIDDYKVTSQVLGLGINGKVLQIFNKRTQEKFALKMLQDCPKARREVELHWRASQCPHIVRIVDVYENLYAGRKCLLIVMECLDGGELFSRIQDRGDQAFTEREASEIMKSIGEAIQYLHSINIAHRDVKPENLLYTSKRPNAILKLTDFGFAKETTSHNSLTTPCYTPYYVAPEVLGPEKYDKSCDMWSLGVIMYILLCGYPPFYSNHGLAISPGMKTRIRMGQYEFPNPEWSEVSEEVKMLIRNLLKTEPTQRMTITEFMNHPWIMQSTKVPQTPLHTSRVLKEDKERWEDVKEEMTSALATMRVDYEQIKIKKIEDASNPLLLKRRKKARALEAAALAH

Sequence | % activity (ALK4(h)) [%] | % activity (BrSK1(h)) [%] | % activity (EphA4(h)) [%] | % activity (ErbB4(h)) [%] | % activity (GCK(h)) [%] | % activity (MAPKAP-K2(h)) [%] | % activity (Met(h)) [%] | % activity (Met(Y1248D)(h)) [%] | % activity (Ret(h)) [%] | % activity (SRPK1(h)) [%] | % activity (Tie2(Y897S)(h)) [%] | % activity (HIPK1(h)) [%]
YARAAARQARAKALNRQLGVA [MMI-0200] | 152 | 93 | 127 | 82 | 99 | 35 | 71 | 118 | 96 | 93 | 85 | 
KAFAKLAARLYRKALARQLGVAA [MMI-0400] | 130 | 76 | 65 | 0 | 66 | 5 | 62 | 31 | 145 | 96 | 87 | 91
HRRIKAWLKKIKALARQLGVAA [MMI-0500] | 81 | 72 | 48 | 2 | 30 | 9 | 27 | 218 | 174 | 80 | 80 | 47
FAKLAARLYRKALARQLGVAA [MMI-0300] | 140 | 67 | 88 | 40 | 70 | 5 | 65 |  | 140 | 90 | 83 | 74
